Experimental findings from patent US20130336983A1 (TRUSTEES OF DARTMOUTH COLLEGE, published 2013) are described below.

The series concerns the molecule itself. Nature of the series: NMR spectroscopy of the 20-mer.

B1: 20-mer representing residues 120-139 of S14 domain III (peptide)
peptide: LHHILMHLTEKAQEVTRKYQ
B1: the binding result is listed as “binds”.
